According to paper PMC4889030 (Molecular cell, 2016):
Read-outs that look alike come from different tables or passages of the source. Where no end group is shown, it is not given here.

How the values were obtained:
Experiment in all cases: pull-down
[1] = target: T1, full length ^FlagCRBN expressed in CRBN-KO 293FT cells (human, UniProt Q96SW2 1-442)
[2] = target: T1, full length ^FlagCRBN expressed in …; remark: listed apart in the source
^FlagCRBN H357Y = ^FlagCRBN H357Y (human, UniProt Q96SW2 1-442, H357Y)
^FlagCRBN H357Y, sequence (Q96SW2 whole entry H357Y): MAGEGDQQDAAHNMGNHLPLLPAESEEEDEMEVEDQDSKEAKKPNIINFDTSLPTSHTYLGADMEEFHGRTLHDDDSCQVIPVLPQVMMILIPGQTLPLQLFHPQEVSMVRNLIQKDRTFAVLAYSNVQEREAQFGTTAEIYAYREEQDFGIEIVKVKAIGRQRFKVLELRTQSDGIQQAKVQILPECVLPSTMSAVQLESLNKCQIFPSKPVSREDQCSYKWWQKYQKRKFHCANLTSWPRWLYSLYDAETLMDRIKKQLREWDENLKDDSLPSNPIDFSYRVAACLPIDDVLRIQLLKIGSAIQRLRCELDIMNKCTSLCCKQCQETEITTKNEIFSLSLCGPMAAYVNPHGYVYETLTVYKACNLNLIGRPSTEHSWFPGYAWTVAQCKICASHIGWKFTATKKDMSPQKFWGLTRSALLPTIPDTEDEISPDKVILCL

T1 sequence (Q96SW2 whole entry): as the sequence (Q96SW2 whole entry H357Y) above, with Y357H counted along it

binding result [1] | binding result [2] | binding result (^FlagCRBN H357Y) | Binder
binds | – | – | ASSHLNK(Ac)GIK(Ac)QVYMSLPQ (peptide, UniProt P15104 5-22, looked up, also: biotinylated, place not given here) [biotinylated synthetic GS peptide (amino acids 5-22 of GS), di-acetylated on K11 and K14]
– | binds | – | ASSHLNKGIK(Ac)QVYMSLPQ (peptide, UniProt P15104 5-22, looked up, also: biotinylated, place not given here) [biotinylated synthetic GS peptide (amino acids 5-22 of GS), mono-acetylated on K14]
– | binds | binds | ASSHLNK(Ac)GIKQVYMSLPQ (peptide, UniProt P15104 5-22, looked up, also: biotinylated, place not given here) [biotinylated synthetic GS peptide (amino acids 5-22 of GS), mono-acetylated on K11]
